Measurements: the RNAGym collection of RNA variant scans (doi:10.1021/acssynbio.7b00057)

B1: Pistol ribozyme (parent)
chain: GGGUCGUUGUUCCAUAAUCGCGUGGAUAUGGCACGCAAGUUUCUACCGGGCACCGUAAAUGUCCGACUGGAGCCGUUCGGGCGGCUAUAAACAGACCUCAGGCCCGAAGCGUGGCGGCACCUGCCGCCGGUGGUAAAAAAGAUCGGAAGAGCACACGUCU

Variants of: B1
Test: aptazyme ON/OFF ratio, guanine; higher = stronger switching; co-transcriptional cleavage with and without guanine

Variant | aptazyme ON/OFF ratio
U7A U8C G9A U11G C12A C13A | 1.22
U7C U8G G9U U11C C12G C13G | 1.17
U7G U8C U10A C13G | 1.08
U8G G9U U10C C12A C13U | 1.15
U7A U8C G9U U10A U11A C12U C13A | 1.21
U7G U8G G9C U10A U11A C12A C13A | 1.05
U7G U8C G9A U10A C12G C13G | 1.08
U7A U8G G9U U10A U11A C12G C13G | 1.28
U7C G9U U10C U11G C12A C13G | 1.1
U7A U8C G9A U10C C12G C13G | 1.16
U7C G9U U11A | 1.41
U7G U8C G9A U11A C13U | 1.21
U7C U8A U11A | 1.13
U8C G9C U10G U11G C12A C13G | 1.11
G9U U10G U11C C12G | 1.65
U7A U8G G9C U10C U11A C12U C13A | 1.13
U7A G9C U10G U11G | 1.06
U7G G9U U10C U11G C12U C13A | 1.22
U7C U8A G9C U10C U11G C12U C13A | 1.05
U7G U8A U10A U11G | 2.46
U8A G9A U10A U11C C12A C13G | 1.16

Variant | aptazyme ON/OFF ratio
U7A U8C U10A U11G C12A C13G | 1.15
U8G G9A U10G C13U | 1.58
U7A U8G G9A U10G C12A C13U | 1.31
U7G G9C C12A C13G | 1.33
U7A U8C G9A U10C U11G C12G C13G | 1.29
U7C U8C C12A C13A | 1.23
U8A G9A U11A C12G | 1.31
U7C U8C G9U U10C U11C C12G C13A | 1.05
U7G G9C | 2.85
U7C G9A U10A U11G C12G C13A | 1.12
U7G G9C U11C C12G C13U | 1.36
U7A U8C U10G U11A C12A C13U | 1.32
U7G U8G G9A U10G C13A | 1.39
U7A U8A G9A U10G U11A C12A C13U | 1.2
U7G U8A G9A U10C C12A C13G | 1.06
U7G U8A G9A U10C C12A C13U | 1.08
G9A U11C C12G | 1.45
U7G G9U U10A C12G | 1.59
U7A G9U U10G U11A C12U C13G | 1.16
U7C U10C U11G C12U C13U | 1.16
U7G U8A G9C U10A U11A C12U C13G | 1.05

Variant | aptazyme ON/OFF ratio
U7G G9A U10G U11A C12U | 1.07
U7C U8G G9C U10A U11A C12G C13G | 1.18
U7A U8G G9C U10G U11G C13A | 1.19
U7A U8A G9C U10A U11C C12U C13A | 1.13
U7C U10G U11C C12A C13U | 1.18
U7C U8G U10C U11C C12A C13G | 1.14
U7A U8C G9A U10C U11C C12G | 1.11
U7A U8G G9U U10A U11C | 1.06
U7G G9U U10G U11G C12G C13A | 1.1
U7G U8C G9U U11C C13U | 1.3
U7A U8G G9A U10A U11A C12G C13U | 1.37
U7A U8C G9U U10A U11G | 1.31
U7G U8C G9C U10A U11G C13G | 1.15
U7G G9A U10G U11G C12G | 1.09
U8A G9U U10C U11A C13G | 1.03
U7G U8C U11G C12U C13U | 1.22
U7C U8C G9C C13A | 1.09
U7C U10A C12G | 1.29
U7A U10G U11A C12G C13G | 1.17
U7G U8C G9U U10A U11G C12U C13G | 1.11
U7A U8A G9C U10A U11G C13A | 1.17

Variant | aptazyme ON/OFF ratio
U7A U8G G9A U10A C13G | 1.18
U7A U8A G9C U11C C12G C13U | 1.07
U7A G9A U10G U11G | 1.08
U8C U10A U11G C12G | 1.31
U8A U10C C12U C13U | 1.35
U8C C12G C13G | 1.15
U7G G9C U10A U11A C12A | 1.46
U7C U8C G9A U11G C13U | 1.27
U7C U8C G9C U10C U11C C12A | 1.04
U7C U8A U11C C12U C13U | 1.19
U7C U8C G9U U10A U11G C12G C13G | 1.08
U7A U8A G9A U11C C12G | 1.1
U7C U8C U10A U11G C13G | 1.18
U8G G9C U10C C12A C13A | 1.05
U8G G9C U10C U11A C12A C13U | 1.05
U7A U10G C13A | 1.31
U7G G9C U10G U11C C12U C13G | 1.26
U7C U8G G9C U11G C12U C13A | 1.2
U7A G9C U10A U11A C13G | 1.03
U7A G9U U10G C12G | 1.13
G9C C13G | 1.03
